US20220332804A1 (CSL INNOVATION, published 2022)
Where a chain is given by its changes, count along the chain named.

What was measured:
Experiment in all cases: SPR; KD relative to WT C2;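 also: biacore SPR at 37 °C, anti-C2 mAbs captured on an anti-human IgG chip, alanine or serine C2 surface mutants tested, KD from 1:1 fit compared with wild-type C2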
human C2 E267A = biological target: T1, human C2 E267A (human, UniProt P06681 21-752)
T1 sequence: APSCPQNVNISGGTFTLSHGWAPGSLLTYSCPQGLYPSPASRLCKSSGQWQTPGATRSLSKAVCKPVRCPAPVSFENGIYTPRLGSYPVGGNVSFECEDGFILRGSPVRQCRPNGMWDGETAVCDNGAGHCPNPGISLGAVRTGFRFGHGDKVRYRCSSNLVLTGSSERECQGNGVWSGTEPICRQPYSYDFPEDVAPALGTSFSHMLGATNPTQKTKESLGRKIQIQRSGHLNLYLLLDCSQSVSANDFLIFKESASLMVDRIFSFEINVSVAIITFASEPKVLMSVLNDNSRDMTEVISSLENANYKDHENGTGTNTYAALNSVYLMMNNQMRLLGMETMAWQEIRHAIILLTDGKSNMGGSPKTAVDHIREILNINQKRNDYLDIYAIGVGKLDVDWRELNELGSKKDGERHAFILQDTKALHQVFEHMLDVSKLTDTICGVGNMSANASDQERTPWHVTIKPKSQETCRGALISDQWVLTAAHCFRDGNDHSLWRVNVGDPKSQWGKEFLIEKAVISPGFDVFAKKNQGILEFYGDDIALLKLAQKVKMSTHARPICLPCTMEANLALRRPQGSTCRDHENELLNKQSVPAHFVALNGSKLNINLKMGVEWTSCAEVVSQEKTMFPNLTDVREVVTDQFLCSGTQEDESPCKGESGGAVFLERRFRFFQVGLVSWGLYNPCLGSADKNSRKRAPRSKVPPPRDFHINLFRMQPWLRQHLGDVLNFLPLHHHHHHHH

human C2 S473A = biological target: T2, human C2 S473A (human, UniProt P06681 21-752)
T2 sequence: T1 sequence with A247E, S453A

human C2 D417A = biological target: T3, human C2 D417A (human, UniProt P06681 21-752)
T3 sequence: T1 sequence with A247E, D397A

human C2 K430A = biological target: T4, human C2 K430A (human, UniProt P06681 21-752)
T4 sequence: T1 sequence with A247E, K410A

Fold diff (human C2 E267A): 1 fold
Fold diff (human C2 S473A): 2 fold
Fold diff (human C2 D417A): 2 fold
Fold diff (human C2 K430A): 10 fold
B1: RF16-214 (antibody, V domains shown)
VH: EVQLLESGGGLVQPGGSLRLSCAASGFTFSWYQMMWVRQAPGKGLEWVSRIYPSGGGTAYADSVKGRFTISRDNSKNTLYLQMNSLRAEDTAVYYCARDAGYGDNWGQGTLVTVSS
VL: QSALTQPPSVSVSPGQTASITCSGDKLGEKYASWYQQKAGQSPVMVIYQDRKRPSGIPERFSGSNSGNTATLTISGTQAMDEADYYCQAWDTRAVVFGGGTKLTVLG
